Patent publication US20170313754A1 (PROTAGONIST THERAPEUTICS, published 2017)
Bridge positions count the residues as written; N and C are the ends. Square brackets hold non-standard residues; d marks the D form. * marks the point of attachment. NMeW = CN[C@@H](Cc1c[nH]c2ccccc12)C(=O)O; Isovaleryl = CC(C)CC(=O)*; Sar = CNCC(=O)O

T1: human ferroportin (SLC40A1) fused in frame with GFP, stably expressed in HEK293 cells (human, UniProt Q9NP59 1-571)
T1 sequence (looked up): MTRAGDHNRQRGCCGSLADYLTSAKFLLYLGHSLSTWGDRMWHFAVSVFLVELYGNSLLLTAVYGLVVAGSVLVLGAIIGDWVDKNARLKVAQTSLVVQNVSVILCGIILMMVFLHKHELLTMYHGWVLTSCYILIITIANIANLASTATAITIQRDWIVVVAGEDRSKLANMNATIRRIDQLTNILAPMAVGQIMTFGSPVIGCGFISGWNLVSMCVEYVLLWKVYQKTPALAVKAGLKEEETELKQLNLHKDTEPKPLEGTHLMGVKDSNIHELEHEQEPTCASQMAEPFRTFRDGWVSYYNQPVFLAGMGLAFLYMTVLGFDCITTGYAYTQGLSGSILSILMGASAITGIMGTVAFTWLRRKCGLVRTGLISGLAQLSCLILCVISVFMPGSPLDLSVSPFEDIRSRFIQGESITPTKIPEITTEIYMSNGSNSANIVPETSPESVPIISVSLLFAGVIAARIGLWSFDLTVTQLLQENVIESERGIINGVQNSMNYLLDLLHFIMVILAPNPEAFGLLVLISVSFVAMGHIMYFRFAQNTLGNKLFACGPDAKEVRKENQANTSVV


molecular target: T1, human ferroportin (SLC40A1) fused in …; test: cell-based or functional assay

| Potency EC50 (nM), ferroportin-GFP internalization/degradation [nM] | Potency: percent at the stated concentration, ferroportin-GFP internalization/degradation | Binder |
| --- | --- | --- |
| 679 |  | H-DTHFPCIIFGGPRSKGWDCK-NH2 (disulfide 6-19 (inferred)) [Hy-DTHFPCIIFGGPRSKGWDCK-NH2] |
| 10 |  | DTHFPCIIFXPRSKGWVC (N-terminal isovaleric acid; Sarc at position 10; N-MeTrp at position 16; C-terminal amide) [Isovaleric acid-DTHFPCIIF-[Sarc]-PRSKG-[N-MeTrp]-VC-NH2] |
|  | 85 % at 1 uM | H-DTHFPCILY-NH2 [Hy-DTHFPCILY-NH2] |
| > 10000 |  | H-DTHFPCIIFGPRSKGWVACY-NH2 (not fully specified (bridges); printed as Hy-DTHFPCIIFGPRSKGWVACY-NH2; cysteine pairing not given here) [Hy-DTHFPCIIFGPRSKGWVACY-NH2] |
|  | 8 % at 1 uM | H-DTHFPCIEY-NH2 [Hy-DTHFPCIEY-NH2] |
| 197 |  | H-DTHFPCIIFGPRSKGWAVCYW-NH2 (not fully specified (bridges); printed as Hy-DTHFPCIIFGPRSKGWAVCYW-NH2; cysteine pairing not given here) [Hy-DTHFPCIIFGPRSKGWAVCYW-NH2] |
| 46 |  | Isovaleryl-DTHFPCIKFEPRSKEWVCK-OH (not fully specified (bridges); cysteine pairing not given here) [Isovaleric acid-DTHFPCIKFEPRSKEWVCK-OH] |
|  | 23 % at 1 uM | H-DTHFPCIIT-NH2 [Hy-DTHFPCIIT-NH2] |
| 20 |  | Isovaleryl-DTHFPCIKFEPRSKEWVCK-NH2 (disulfide 6-18 (inferred)) [Isovaleric acid-DTHFPCIKFEPRSKEWVCK-NH2] |
| 19 |  | Isovaleryl-DTHFPCIIFEPRSKEWVCK-NH2 (disulfide 6-18 (inferred)) [Isovaleric acid-DTHFPCIIFEPRSKEWVCK-NH2] |
| 10 |  | Isovaleryl-DTHFPCIIFEPRSKFWVCK-NH2 (disulfide 6-18 (inferred)) [Isovaleric acid-DTHFPCIIFEPRSKFWVCK-NH2] |
| 404 |  | H-DTHFPCIIFGGPRSKGWNCK-NH2 (not fully specified (bridges); printed as Hy-DTHFPCIIFGGPRSKGWNCK-NH2; cysteine pairing not given here) [Hy-DTHFPCIIFGGPRSKGWNCK-NH2] |
| > 1000 |  | H-DTHFPCIDFGPRSKGWVCK-NH2 (disulfide 6-18 (inferred)) [Hy-DTHFPCIDFGPRSKGWVCK-NH2] |
|  | 75 % at 10 uM | H-DTHFPCIIY-NH2 [Hy-DTHFPCIIY-NH2] |
| > 1000 |  | H-DTHFPCIIFGPRSRGHVCK-NH2 (not fully specified (bridges); printed as Hy-DTHFPCIIFGPRSRGHVCK-NH2; cysteine pairing not given here) [Hy-DTHFPCIIFGPRSRGHVCK-NH2] |
| 15 |  | Isovaleryl-DTHFPCIIFEPRSKHWVCK-NH2 (disulfide 6-18 (inferred)) [Isovaleric acid-DTHFPCIIFEPRSKHWVCK-NH2] |
| 149 |  | H-DTHFPICIFGPHRSKGWVCM-NH2 (disulfide 7-19 (inferred)) [Hy-DTHFPICIFGPHRSKGWVCM-NH2] |
| > 1000 |  | H-DTHFPCINFGPRSKGWVCK-NH2 (disulfide 6-18 (inferred)) [Hy-DTHFPCINFGPRSKGWVCK-NH2] |
| > 1000 |  | Isovaleryl-DTHFECIIFGPRSKGWVCK-NH2 (not fully specified (bridges); cysteine pairing not given here) [Isovaleric acid-DTHFECIIFGPRSKGWVCK-NH2] |
| > 10000 |  | H-DTHFP[dC]IIFGPRSKGWVA[dC]-NH2 (disulfide 6-19 (inferred)) [Hy-DTHFP-[(D)Cys]-IIFGPRSKGWVA-[(D)Cys]-NH2] |
| 520 |  | H-DTHFPCIIFGGPRSRGWVCK-NH2 (not fully specified (bridges); printed as Hy-DTHFPCIIFGGPRSRGWVCK-NH2; cysteine pairing not given here) [Hy-DTHFPCIIFGGPRSRGWVCK-NH2] |
| 46 |  | Isovaleryl-DTHFPCIKFKPHSKEWVCE-NH2 (disulfide 6-18 (inferred)) [Isovaleric acid-DTHFPCIKFKPHSKEWVCE-NH2] |
| 7 |  | Isovaleryl-DTHFPCIIFEPRSKLWVCK-NH2 (disulfide 6-18 (inferred)) [Isovaleric acid-DTHFPCIIFEPRSKLWVCK-NH2] |
|  | 50 % at 10 uM | H-DTHFVCIIF-NH2 [Hy-DTHFVCIIF-NH2] |
| 28 |  | Isovaleryl-DTHFPCIKFEPHSK[Sar]CK-NH2 (not fully specified (bridges); cysteine pairing not given here) [Isovaleric acid-DTHFPCIKFEPHSK-[Sarc]-CK-NH2] |
| 281 |  | H-DTHFPCIIFGPRSKGWVAC-NH2 (not fully specified (bridges); printed as Hy-DTHFPCIIFGPRSKGWVAC-NH2; cysteine pairing not given here) [Hy-DTHFPCIIFGPRSKGWVAC-NH2] |
| 9 |  | DTHFPCIIFXPHSKGWVC (N-terminal isovaleric acid; Sarc at position 10; N-MeTrp at position 16; C-terminal amide) [Isovaleric acid-DTHFPCIIF-[Sarc]-PHSKG-[N-MeTrp]-VC-NH2] |
| 9 |  | Isovaleryl-DTHFPCIKFEPRSKLWVCK-NH2 (disulfide 6-18 (inferred)) [Isovaleric acid-DTHFPCIKFEPRSKLWVCK-NH2] |
| 32 |  | Isovaleryl-DTHFPCIIFGPRSKG[NMeW]VC-NH2 (disulfide 6-18 (inferred)) [Isovaleric acid-DTHFPCIIFGPRSKG-[N-MeTrp]-VC-NH2] |
| > 1000 |  | H-DTHFPCIIFGPRSKGWNCK-NH2 (not fully specified (bridges); printed as Hy-DTHFPCIIFGPRSKGWNCK-NH2; cysteine pairing not given here) [Hy-DTHFPCIIFGPRSKGWNCK-NH2] |
